According to paper PMC4643126, “On the Ancestral UDP-Glucose Pyrophosphorylase Activity of GalF from Escherichia coli” (Frontiers in Microbiology, 2015):
Numbering of substitutions follows the chain as printed. Names and notes keep the numbering of the source.

B1: GalU (UDP-glucose pyrophosphorylase) from Escherichia coli (enzyme, Escherichia coli K-12, UniProt P0AEP3 1-302, looked up)
chain: MAAINTKVKKAVIPVAGLGTRMLPATKAIPKEMLPLVDKPLIQYVVNECIAAGITEIVLVTHSSKNSIENHFDTSFELEAMLEKRVKRQLLDEVQSICPPHVTIMQVRQGLAKGLGHAVLCAHPVVGDEPVAVILPDVILDEYESDLSQDNLAEMIRRFDETGHSQIMVEPVADVTAYGVVDCKGVELAPGESVPMVGVVEKPKADVAPSNLAIVGRYVLSADIWPLLAKTPPGAGDEIQLTDAIDMLIEKETVEAYHMKGKSHDCGNKLGYMQAFVEYGIRHNTLGTEFKAWLEEEMGIKK
notes: GalU, E. coli K-12, gene galU (909 bp) amplified from genomic DNA, codes for 302 amino acids; expressed from pET28c as an untagged protein; also called UDP-Glc PPase; UTP:glucose-1-phosphate uridylyltransferase; source: E. coli BL21 Star (DE3), purified (DEAE-Sepharose)
B2: GalU_(T20M/R21H) (enzyme, Escherichia coli K-12, UniProt P0AEP3 1-302, looked up)
chain: B1 chain with T20M, R21H
notes: GalU, E. coli K-12, 302 amino acids, untagged, with T20M and R21H; Mutagenesis on the plasmid of the wild-type enzyme; also called GalU T20M/R21H double mutant; source: E. coli BL21 Star (DE3), purified (DEAE-Sepharose)
B3: GalU_(K202A) (enzyme, Escherichia coli K-12, UniProt P0AEP3 1-302, looked up)
chain: B1 chain with K202A
notes: GalU, E. coli K-12, 302 amino acids, untagged, with K202A; Mutagenesis on the plasmid of the wild-type enzyme; source: E. coli BL21 Star (DE3), purified (DEAE-Sepharose)

Biological target: the molecule itself
Assay: SEC; gel filtration of the purified protein on Superdex 200 HR 10/30 in 25 mM Tris-HCl pH 8.0, 100 mM NaCl, 0.1 mM EDTA; mass from a calibration plot of standards

Protein	stoichiometry N
B1	4
B2	4
B3	4
